From the nanobody polyreactivity screen of Harvey et al. (2022)

Experiment: yeast display, Sf9 membrane polyspecificity reagent, FACS + sequencing; frameworks hold sequencing errors
Summary of the method: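 Nanobodies from a synthetic yeast display library (Saccharomyces cerevisiae BJ5465), induced 36–48 hours with galactose, were stained 1 hour at 4 °C with 10% biotinylated, detergent-solubilized Sf9 membrane reagent, enriched on streptavidin microbeads, then FACS-sorted. Anti-HA (expression) and streptavidin (reagent binding) fluorescence set low and high (top ~1%) gates. Polyreactivity labels come from the gate of origin. Genes were colony-PCR amplified, MiSeq 2 × 250 sequenced and filtered by CDR length.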

Sequence	polyreactivity (PSR sort gate)
QVQLVESGGGLVQAGGSLRLSCAASGSTFGSNAMGWYRQAPGKESELVAAIRWSGGSTYYADSVKGRFTISRDNAKNTVYLQMNSLKPEDTAVYYCNAVYGRQYRGYNYKYYYWGQGTQVTVSS	high polyreactivity
QVQLVESAGGLVQAGGSLRLSCAASGSIFERNVIGWYRRAPGKERELVPRISTSGGSTTYYADSVKGRFTISRDTAKNTVYLQMNSLKPEDTAVYYCAAGRGYWWWYGYDYWGQGTQVTVSS	low polyreactivity
QVQLVESGGGLVQAGGILRLSCAASGRIFYVNAMGWYRQAPGKERELVATIRRGGDTNYADSVKGRFTISRDNAKNTVYLQMNSLNPEDTAVYYCAAKAYQSSYQRYYWGQGTQVTVSS	high polyreactivity
QVQLVESGGGLVQAGGSLRLSCAASGSTFQRYTMGWYRQPPGKERELVAAISQSGGRTYYADSVKGRFTISRDNAKNTVYLQMNSLKPEDTAVYYCNAASRTKFDYWGQGTQVTVTS	high polyreactivity
QVQLVESGGGLVQAGGSLRLSCAASGRTFYRNTMGWYRQAPGKEREFVAAISATAGRTYYADSVKGRFTISRDNAKNTVYLQMNSLKPEDTAVYYCAAVPLRNRWPNSWPALDYWGQGTQVTVSS	high polyreactivity
QVQLVESGGGLVQAGGSLRLSCAASGRIFYSYAMGWYRQAPGKERELDAAITRGGSTSYADSVKGRFTISRDNAKNTVYLQMNSLKPEDTAVYYCATRQFYSYWKYYYWGQGTQVTVSS	high polyreactivity
QVQLVESGGGLVQAGGSLRLSCAASGRTQRYYAMGWYRQAPRKERELVAAITKSGGSTYYADSVKGRITISRDNAKNTVYLQMYSLKPEDTAVYYFNKVTYSRAQYIGGDGYYWGQGTQVTVSS	high polyreactivity
QVQLVESGGGLVQAGGSLRLSCAASGSIFEPYTMGWYRQAPGKERELVAAITGSGCSKFYADSVKGRFTISRDNAKNTVYLQMNSLKPEDTGVYYCNAYAYPYTDVDYWGQGTQVTVSS	low polyreactivity
QVQLVESGGGLVQAGGSLRLSCAASGSTFKNYAMGWYRQAPGKERELVAAINVSGARTYYADSVKGRFTISRDNAKNTVYLQMNSLKPEDTAVYYCAAYYSGVGYDYWGQGTQVTVSS	high polyreactivity
QVQLVESGGGLVQAGGSLRLSCAASGSIWHKAMGWYRQAPGKERELVASSTNYADSVKGRITISRDNAKNTVYLQMNSLKPEDTAVYYCALEQGVNRNHDYWGQGTQVTVSS	low polyreactivity
QVQLVESGGGLVQAGGSLRLSCAASGYIFGHYTMGWYRPAPGKEGELVAGITRGTRTYYADSVKGRFTISRDNAKNTVYLQMNSLKPEDTAVYYCAKRGPVRTQYTYYYWGQGTQVTVSS	high polyreactivity
QVQLVESGGGLVQAGGSLRLSCAASGSTFVFYAMGWYRQAPGKERELVAINSGGSTYYADSVKGRFTISRDNAKKTVYLQMNSLKPVDTAVYYCAKDRLRVWRFDYWGQGTQVTVSS	low polyreactivity
QVQLVESGGGLVQAGGSLRLSCAAYGHIFFYYTMGWYRQAPGKERELVAAITIGGSTNYADSVKGRFTISRDYAKNTVYLQMNSLKPEDTAVYYCNVVKYVYIYSYWEYYYWGHGTQVTVSS	low polyreactivity
QVQLVESGGGLVQAGGSLRLSCAASGSTFALYAMGWYRQAPGKERELVASITLSGGRTYYADSVKGRFTISRDNAKNTVYLQMNSLKPEDTAVDYCNAEDYDWMDYWGQGTQVTVSS	high polyreactivity
QVQLVESGGGLVQEGGSLRLSCAASGSIFDTYAMGWYRQAPGKERELVAAISSGGRTYYADSVKGRFTISRDNAKNTDYFQMNSLKPEYTAVYYCAKERYQQGNYYRYGYWGQGTQVTVSS	high polyreactivity
QEQLQESCGGLVLAGGSLRLSCASSGSISAQAYMGWDRQAPGKEREHVAGINYGDNTNYADSVKGRFTISRDNEHRVSADEQPETGRYRGVLLRGFLELFYYYIYWGQGTQVTVSS	high polyreactivity
QVQIVESGGGLVQAGGSLRLSCAASGSIFGVNAMGWYRQAPGKERELVASITGGDSTNYADSVKGRFTISRDNAKNTVYLQMNSLKPEDTAVYYCAKDHYYRYEEGDYWGQGTQVTVSS	low polyreactivity
QVQLVESGGGLVQAGGSLRLSCAASGSTISYYAMGWYRQAPGKERELVAAISSRGVITYYADSVKGRFTISRDNAKNTVYLQMNSLKPEDTAVYYCNVDSAWYPYETEDYWGQGTQVTVSS	low polyreactivity
QVQLVESGGGLVQAGGSLRLSCAASGLTFDRYAMGWYRQAPGKERELVAAISGSGSSTYYADSAKGRFTISRDNAKNTVYLQMNSLKPEDTAVYYCAADRDLGYDTRYNYWGQGTQVTVSS	low polyreactivity
QVQLVESGGGLVQAGGSLRLSCAASGFTFGSYAMGWYRQAPGKERELVAAITYRGGSTYYADSVKGRFTISRDNAKNTVYLQMNSLKPEDTAVYYCAADSRRKGNYWGQGTQVTVSS	high polyreactivity
QVQLVESGGGLVQAGGSLRLSCAASGRIFTNNAMGWYRQAPGKERELVAAISRSGGRTYYADSVKGRFTISRDNAKNTVYLQMNSLKPEDTAVYYCAAVHLYYGYNSPFTMDYWGQGTQVTVSS	high polyreactivity
QVQLVESGGGLVQAGGSLRLSCAASGSTFKIYARGWYRQAPGKERELVARITGRGGSTYYADSVKGRFTISRDNAKNTVYLQMNSLKPEDTAVYYCAARVYTYYYDLHKRYYWGQGTQVTVSS	high polyreactivity

Sequence	polyreactivity (PSR sort gate)
QVQLVESGGGLVQAGGSLRLSCAASGIICVKYTMGWYRQAPGKERELVAAISRSGGSTYYADSVKGRFTISRDNAKNTVYLQMNSLKPEDTAVYYCNAVSRKVYPGPMDYWGHGTQVTVSS	high polyreactivity
QVHLVESGGGLVQAGGSLRLSCAASGSTFYENAMGWYIQAPGKERELVAGISRGGGSTYYADSVKGRFTISRDNAKNTVYLQMNSLKPEDSAVYYCAAGSRVQGGYWGQGTQVTVSS	low polyreactivity
QLQLVESGGGLVQAGGSLRLSCAASGSTFHYYDMGWNRKATGKERELVAAISSGGDSTYYADSVKGRFTISRDNAKNTVYLQMNSLKPEDTAVYYCAAAVYYGQSVWYYYWGQGTQVTVSS	high polyreactivity
QVQLVESGGGLVQAGGSLRLSCAASGSIFYKNAMGWYRQAPGKVRELVAAITGSGGRTYYADSVKGRFTISRDNAKNTVYLQMNSLKPEDTAVYYCNTDPSPRYRYDYWGQGTQVTVSS	high polyreactivity
QVQLVESGGGLFQAGGSLRLICAASGITFEYNTMGWYRQAAGKERELVAAITSDGGSTYYADSVKGRFSISRDNAKNTVYLQMNSLKPEDTAVYYFAAVFYDQYYYWGQGTQVTVSS	high polyreactivity
QVQLVESGGGLVQAGGSLRLSCAASGSIFAWYGMGWYRPAPGKERELVAAISTAGSTNYADSVKGRFTISRDNAKNTVYLQMNSLKPEDTAVYYCAKKSSWYYPERFDYWGQGTQVTVSS	low polyreactivity
QVQLVESGGGLVQAGGSLRLSCAASGRTFVIYVMGLYRQAPGKERELVARISGSDGGTYYADSVKGRFTISRDNAKNTVYLQMNSLKPEDTAVYYCATARYPVAGLMDYWGQGTQVTVSS	low polyreactivity
QVQQVESGGGLVQAGVSLRLSCPASGLTFYTNPRGWYRQAPGKERELVAAIRRRGGRTYYADSVKGRFTISRDNATNSVYLQMNSLKPEDTAVSYCAADYSTLYNYDYWGQGTQVTVSS	low polyreactivity
QVQLVESGGGIVQAGGSLRLSCAASGSIFGANAMVWYRQAPGKERELVAAISRRGGSTYYADSVKGRFTISRDNAKNTVYLQMNSLKPEDSAVYYCNTYPQSLGVKYGYWGQGTQVTVSS	high polyreactivity
QVQLVESGGGLVQAGGSLRLSCAASGRTFGYYGMGWYRQAPGKERELVASINFSSGSTFYADSVKGRFTISRDNAKNTVYLQMNSLKPEDTAVYYCAARAKAVRTYAYNYWGQGTQVTVSS	low polyreactivity
QVQLVDSGGGLVQAGGSLRLSCAASGIIFRTNAMGWYRQAPGKERELVAAIRWSDGSTYYADSVKGRFTISRDNAKNTVYLQMNSLKPEDTAVYYCNAASQYTFDCSFDDWGQGTQVTVSS	low polyreactivity
QVQLVESGAGLVQAGGSRRLSCAASGSIFGVNAMGGYRQAPGKERELVASITGGDSTNYADSVKGRFTISRDNAKNTVYLQMNSLKPEDTAFYYCAKDHYYRYEEGDYWGQGTQVTVSS	low polyreactivity
QVQLVESGGGLVQAGGSLRLRCAASGSTFLKNAKGWYRQAPGKERELVAAISYSTTRSYYADSVKGRFTISRDNAKNTVYLQMNSLKPEDTAVYYCAADGYWWTYTRYDYWGQGTQVTVSS	low polyreactivity
QVQLVESGGGLVQAGGSLRLSCAASGLTFTVYTMVWYRQAPGKERELVATNSWSDGRTYYADSVKGRFTISRDNAKNTVYLQMNSVKPEDTAVYYCATESITWYYFKHEYWGQGTQVTVSS	high polyreactivity
QVQLVESGGGLVQAGGSLRLSCAASGSIFIPNAMGWYRQAPGKERELVAAITSGGRTYYADSVKGRFTISRDNAKNTVYLQMNSLKPEDTAVYYCAARSGYRYVESDYWGQGTQVTVSS	high polyreactivity
QVQLVESGGGLVQAGGSVRLSCAASGSTFLYNAMGWYRQAPGKEREVVAGIRRSGGSTYYADSVKGRFTISRANAKNTVYLQMNSLKPEDTAVYYCAVVPAMYRYRVVTYAYDYWGQGTQVNVSS	low polyreactivity
QVQLVESGGGLVQAGGSLRLSCAASGRIFYFYAMGWYRQAPGKERELVAAITGSAGGTYYADSVKGRFTISRDNAKNTVYLQMNSLKPEDTAVYYCNAGSTRYWRSRYDYWGQGTQVTVSS	low polyreactivity
QVQHVESGGGLVQAGGSLRLSCAASGRTFSANAMGWDRQAPGKEMELVATISSGGRTNYADSVKGRFTISRDNAKNTVYLQMNSLKPEDTAVYYCAKRGPYKRWYGRYDYWGQGTQVTVSS	low polyreactivity
QVQLVESGGGLVQAGGSLRLSCAASGGTFSRNAMGWYRQAPGKERELVAAINSSGVSTSYADSVKGRFTISRDNAKNTVYLQMNSLKPEDTAVYYCADETSSAEVDYWGQGTQVTVSS	low polyreactivity
QVQLVESGGGLVQAGGSLRLSCAASGFIFGDNAMGWYRQAPGKERELVAAITYSGGSTYYADSVKGRFTISRDYAKNTVYLQMNSLKPEDTAVYDCAASNQWSSTYLTYGYYYWGQGTQVTVSS	low polyreactivity
QVQLVESGGGLVQAGGSLRLICAASGLTFVHNAMGWYRQAPGKERELVAAISSSGGRTYYADSVKARFTISRDNAKNTVYLQMNSLKPEDTAVYYCNKAAFNYYLYGYWGQGTQVTVSS	high polyreactivity
